Measurements as given in publication PMC9603416.

Target: T1, RR07-6xHis (Streptococcus pneumoniae R6) (UniProt Q8DRF5)
T1 sequence: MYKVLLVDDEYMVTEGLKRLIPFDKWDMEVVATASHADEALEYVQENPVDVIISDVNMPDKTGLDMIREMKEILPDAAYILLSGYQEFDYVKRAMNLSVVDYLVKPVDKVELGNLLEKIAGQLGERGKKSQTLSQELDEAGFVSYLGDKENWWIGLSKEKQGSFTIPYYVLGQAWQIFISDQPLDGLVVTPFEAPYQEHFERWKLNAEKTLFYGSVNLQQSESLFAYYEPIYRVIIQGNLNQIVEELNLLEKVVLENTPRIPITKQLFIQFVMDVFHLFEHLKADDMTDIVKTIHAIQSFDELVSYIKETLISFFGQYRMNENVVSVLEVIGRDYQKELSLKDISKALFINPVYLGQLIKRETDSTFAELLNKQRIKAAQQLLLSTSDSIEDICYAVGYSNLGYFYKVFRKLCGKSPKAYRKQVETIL
Test: EMSA
Details: EMSA: 1 nM dsDNA probe, increasing RR07, binding buffer 20 mM Tris-Cl (rest of the buffer, pH and temperature not in the material)

Sequence	binding
CACTGGTCTGGGGCACAAAGTAATTCATCCCAAAAGGCACGCCTGTGTATGGCAGGGTATTTCCCCGAGAGAAGGCATGCTTGCTAGCAGTACCAAAGCGGGTATCGATGGTTTCAAGTAGTGGTTTCATAGTCTTTCCTTTAGCTGTTTTTCTACATTATATCAGAAAAAGAGGGCCTTTAGAAAAGGAGTTTTAAAGATAACTATTTTGTAGAAAAATGACTATCATTTGTGTATGTATTTTCTGTCTCAAAAGCTATATACTGAACATGAAACTTGTTTGAAAGAGGGAATTGCACG (double strand) [Pgh125]	no binding
TGCAAAACCTCCTGATTGCATTGTTATATTGATAGCGATTATATAAATCAACGCCTTTATTTTATTTCTTATATTAACGAGAGTCAAGAGGAGATGACAAAAAACTATAATAAGTATAAAAAAATATAAAATTTAAACTTAAGATTTCAGATTGGTCGAAAAAATACATATATATATCTAGTATAATTTTTGGTTCTATTTCTATAAAATATTCCACAAATTATAGAATCTTCCAAAAATAGGTAAGCGCTACCTTTTTGGTGTGGTATAATAAGC (double strand) [PstrH]	no binding
